Sequences and labels used below:
T1: soluble mouse GPNMB (recombinant extracellular domain) (mouse, UniProt Q99P91 23-502)
T1 construct: also called moGPNMB; not shown: C-terminal polyhistidine or Avi-His tag
T1 sequence: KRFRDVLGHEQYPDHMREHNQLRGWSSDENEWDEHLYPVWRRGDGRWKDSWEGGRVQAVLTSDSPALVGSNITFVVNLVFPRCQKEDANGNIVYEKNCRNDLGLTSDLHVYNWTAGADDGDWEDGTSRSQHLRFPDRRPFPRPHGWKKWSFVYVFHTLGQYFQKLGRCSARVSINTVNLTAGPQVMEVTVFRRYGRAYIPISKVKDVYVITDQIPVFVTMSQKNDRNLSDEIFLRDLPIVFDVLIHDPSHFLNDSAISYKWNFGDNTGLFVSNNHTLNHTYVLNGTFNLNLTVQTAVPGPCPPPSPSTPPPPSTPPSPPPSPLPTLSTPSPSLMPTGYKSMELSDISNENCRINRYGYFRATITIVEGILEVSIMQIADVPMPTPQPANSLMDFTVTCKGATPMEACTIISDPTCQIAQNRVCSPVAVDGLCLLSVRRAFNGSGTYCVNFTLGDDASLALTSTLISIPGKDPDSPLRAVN

T2: full-length untagged human GPNMB expressed on cells (human, UniProt Q14956 23-572)
T2 construct: also used here for GPNMB on human monocyte-derived macrophages in the functional assays; also called huGPNMB; Freestyle293-huGPNMB+
T2 sequence: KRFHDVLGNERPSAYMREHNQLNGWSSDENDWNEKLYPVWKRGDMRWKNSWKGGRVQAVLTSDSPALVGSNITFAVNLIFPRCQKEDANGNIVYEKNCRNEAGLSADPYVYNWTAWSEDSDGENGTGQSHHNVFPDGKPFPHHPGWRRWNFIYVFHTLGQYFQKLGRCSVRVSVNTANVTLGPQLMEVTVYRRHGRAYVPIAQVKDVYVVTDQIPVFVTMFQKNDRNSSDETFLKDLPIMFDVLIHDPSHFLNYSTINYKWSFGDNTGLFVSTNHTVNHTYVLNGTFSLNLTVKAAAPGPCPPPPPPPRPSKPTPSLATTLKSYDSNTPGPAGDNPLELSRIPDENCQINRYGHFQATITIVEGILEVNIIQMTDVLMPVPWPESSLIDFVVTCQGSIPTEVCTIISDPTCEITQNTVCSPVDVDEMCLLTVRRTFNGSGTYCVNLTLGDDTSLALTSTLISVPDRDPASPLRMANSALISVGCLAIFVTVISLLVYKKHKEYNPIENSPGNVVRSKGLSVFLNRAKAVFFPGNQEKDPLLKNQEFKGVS

B1: anti-GPNMB antibody GPN-41 (antibody, human IgG1, V domains shown)
VH: QLQLQQSGTEVVKPGASVKIPCKASGYAFSSYWMNWVKQRPGKGLEWIGQIYPGDGDTNDNGKFEGKATLTVDKSSNTAYIQLSSLTSEDSAVYFCARSPLHLRGSMDYWGQGTSVTVSS
VL: SIVMTQTPKFLLVSAGDRVTITCKASQSVSNDVAWFQQKPGQSPELLIYSASNRYTGVPDRFTASGYGTDFTFTISAVQAEDLAVYFCQQNYYSPFTFGGGTRLEIK
notes: chimeric
B2: anti-GPNMB antibody GPN-65 (antibody, human IgG1, V domains shown)
VH: B1 VH
VL: B1 VL with A64G, A77T
notes: chimeric
B3: anti-GPNMB antibody GPN-35 (antibody, human IgG1, V domains shown)
VH: EVQLVESGGGSVRPGRSLKLSCAAAGFTFSDYYMTWVRQAPTKGLEWVASINHDGGGTYYRDSVKGRFTISRDNARSSLYLQMDSLRSEDTGTYYCTTRAGWHWGQGVMVTVSS
VL: DIQMTQSPASLSASLGETVSIECLASEDIYNYLTWYQQKPGKSPQVLIYSASGLQDGVPSRFSGSGSGRQYSLKINGLESEDAATYFCLQDSEYPLTFGSGTKLEIK
notes: chimeric
B4: anti-GPNMB antibody GPN-38 (antibody, human IgG1, V domains shown)
VH: QVQLQQPGAELVRPGTSVRLSCKASGYTFTSYWIHWVKQRPGRGLEWIGVIDPSDSYTNYNQQFNVKATLTVDTSSSAAYMQLSSLTSEDSAVYYCARGLITAVNWYFDVWGTGTTVTVSS
VL: DIQMTQSPASLSTSVGEIVTITCRASENIYSYLTWYQQKQGKSPQLLVYNAKTLAEGVPSRFSGSGSGTQFSLKINSLQPEDFGTYYCQHHYGTPLTFGSGTKLEIK
notes: chimeric
B5: anti-GPNMB antibody GPN-52 (antibody, human IgG1, V domains shown)
VH: DVQLQESGPGLVKPSQTVFLTCTVTGISITTGNYRWSWIRQFPGNKLEWIGYIYYSGTITYNPSLTSRITITRDTPKNEFFLEMNSLTAEDTATYYCARDLTHWYFDVWGTGTTVTVSS
VL: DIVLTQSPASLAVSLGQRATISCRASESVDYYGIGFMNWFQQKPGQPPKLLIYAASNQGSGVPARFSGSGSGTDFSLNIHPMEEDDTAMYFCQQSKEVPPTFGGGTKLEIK
notes: chimeric
B6: anti-GPNMB antibody GPN-61 (antibody, human IgG1, V domains shown)
VH: B5 VH with I69T, E79Q, N85S, Y96F, T102R
VL: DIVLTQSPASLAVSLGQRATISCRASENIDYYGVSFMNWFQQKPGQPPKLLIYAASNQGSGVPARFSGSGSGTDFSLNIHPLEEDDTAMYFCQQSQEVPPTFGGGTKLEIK
notes: chimeric
B7: anti-GPNMB antibody GPN-83 (antibody, V domains shown)
VH: QVQLQESGPGLVKPSETLSLTCTVSGISITTGNYRWSWIRQPPGKGLEWIGYIDYSGTITYNPSLKSRVTITRDTSKNQFSLELSSVTAADTAVYYCARDLTHWYFDVWGQGTLVTVSS
VL: DIVMTQSPDSLAVSLGERATINCKSSRSVDYYGIGFVNWYQQKPGQPPKLLIYATSIQGSGVPDRFSGSGSGTDFTLTISSLQAEDVAVYYCQQQKEVPPTFGGGTKVEIK
B8: anti-GPNMB antibody GPN-86 (antibody, V domains shown)
VH: B7 VH
VL: B7 VL with V37L, I57K
B9: anti-GPNMB antibody GPN-89 (antibody, V domains shown)
VH: B7 VH with F106Y
VL: B7 VL with V37L, I57H
B10: anti-GPNMB antibody GPN-87 (antibody, V domains shown)
VH: B7 VH with F106Y
VL: B7 VL with V37L, I57K
B11: anti-GPNMB antibody GPN-85 (antibody, V domains shown)
VH: B7 VH with S67Q
VL: B7 VL with Y32F, V37L, I57H
B12: anti-GPNMB antibody GPN-90 (antibody, V domains shown)
VH: B7 VH with S67Q
VL: B7 VL with V37L, I57H

Numbering of substitutions follows the chain as printed.

In one assay the target is T1, soluble mouse GPNMB (recombinant …). As to the kind of experiment: SPR Carterra, Ab immobilized. Summed up: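 Analyte series of GPNMB extracellular domain (2.5, 7.4, 22, 67, 200, 600 nM) flowed in ascending order, no regeneration, over IgG1 antibodies EDC/NHS-immobilized on an HC200M array. HBS-EP+ plus 0.5 mg/ml BSA as running buffer, two blanks per series. Affinity estimated via high-throughput kinetic fitting.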
Consider B1, for which the Kd (as a rule, a measure of binding affinity in units of concentration) was found to be 0.4 nM; the koff – broadly, the first-order rate constant of dissociation – was 3.7e-05 s⁻¹; the kon (as a rule, a measure of how fast the partners come together) worked out at 97000 M⁻¹ s⁻¹.
On the same counts, the results for B2 are 0.5 nM, 5.1e-05 s⁻¹ and 100000 M⁻¹ s⁻¹.
Regarding B3, the Kd was 2.1 nM, the koff stood at 0.00012 s⁻¹ and the kon worked out at 56000 M⁻¹ s⁻¹.
On the same counts, the results for B4 are 3.45 nM, 7.8e-05 s⁻¹ and 23000 M⁻¹ s⁻¹.
In the same order, the values of B5 are 4.6 nM, 0.00082 s⁻¹ and 190000 M⁻¹ s⁻¹.
B6: the Kd was determined as 2.1 nM, the off-rate constant (koff) was 0.00029 s⁻¹ and the kon came out at 130000 M⁻¹ s⁻¹.

The target of a further assay is T2, full-length untagged human GPNMB …. As to the kind of experiment: FACS titration, FS293-huGPNMB+ cells. The method, then:
Cell-based binding measurements were also performed to measure the apparent affinities of anti-GPNMB antibodies of the present disclosure to cell-surface expressed GPNMB. Serial dilutions of the monoclonal anti-GPNMB antibodies were added to 100,000 Freestyle293-huGPNMB+ or B16F10 cells and allowed to achieve binding equilibrium at 4° C. After addition of fluorescently labeled secondary antibody and brief washing steps, MFI values as a function of titrated antibody concentration was recorded via FACS analysis. Curves were fit using nonlinear regression analysis with Graphpad Prism 6 software.
Regarding B1, the midpoint of the response, the EC50, lay at 3.88 nM.
Still for that read-out and setting: as for B2, the figure is 2.6 nM; as for B3, 1.33 nM.
Same read-out and setting: as for B4, the figure is 0.99 nM.
The same measure, in the same setting: as for B5, the figure is 1.27 nM.
On to B6, for which it took 7.25 nM to reach a half-maximal effect (EC50).

The target is the same in another assay. As to the kind of experiment: FACS, FS293-huGPNMB+ cells. How it is done: Recombinant anti-GPNMB antibodies of the present disclosure were examined for their ability to bind human and/or mouse GPNMB expressed on Freestyle293-huGPNMB+ or B16F10 cells, respectively. B16F10 cells are a murine melanoma cell line from a C57BL/6J mouse that endogenously express high levels of mouse GPNMB. The antibodies were also tested for their ability to bind to a human macrophage cell line (U937 cells) engineered to express human GPNMB. Cells were harvested, plated at 100,000 cells/well in a 96-well round bottom plate, and incubated in 100 μl FACS buffer (PBS containing 2% FBS, 2 mM EDTA) containing anti-GPNMB monoclonal antibodies of the present disclosure for 30 minutes on ice. Cells were then washed and incubated in 100 ul FACS buffer containing 1 μg/ml APC-conjugated anti-human IgG secondary antibody for 30 minutes in ice. Cells were washed twice in cold FACS buffer and acquired on a BD FACS Canto. Data analysis and calculation of MFI values was performed with FlowJo (TreeStar) software version 10.0.7.
Importantly, several anti-GPNMB antibodies of the present disclosure also bound to the human macrophage cell line U937 cells engineered to express human GPNMB (U937/huGPNMB+) (FIG. 2C). In FIG. 2C, the first data point in each pair corresponds to U937/huGPNMB+ cells, and the second data point in each pair corresponds to U937/huGPNMB− cells. No anti-GPNMB antibodies bound to U937 cells deficient in human GPNMB expression (U937/huGPNMB−).
On the technique in general: A flow cytometer gives signals particle by particle.
Take B1: the “MFI fold over background” value stood at 23.6 fold.
In the case of B2, the “MFI fold over background” value came to 8.1 fold.
Still for that read-out and setting: then B3, with 104 fold; and B4, with 20.7 fold; and B5, with 7.6 fold.
Still for that read-out and setting: as for B6, the figure is 18.6 fold.

Another assay shares this target. As to the kind of experiment: cell-based or functional assay.
Regarding B7, the “Inflammasome: Fold Decrease IL-1β (max response at 0.3 µg/ml)” value was 0.472 fold.
On the same count and under the same terms, then B8, with 0.404 fold; and B9, with 0.501 fold; and B10, with 0.428 fold.
The same measure, in the same setting: then B11, with 0.601 fold.
Same read-out and setting: then B12, with 0.564 fold.

For a further assay the target is unchanged. As to the kind of experiment: cell-based or functional assay. The source holds these as a separate data set.
On to B3, for which the “CD40 (FoB)” value was 1.31 FoB, the “CD80 (FoB)” value is 1.22 FoB, the “GCase (FoB)” value turned out to be 0.9 FoB and the “PDL1 (FoB)” value stood at 1.3 FoB.
Consider B4, for which the “CD40 (FoB)” value came out at 1.01 FoB, the “CD80 (FoB)” value came out at 1.03 FoB and the “PDL1 (FoB)” value stood at 1.03 FoB.
As for B5, the “CD40 (FoB)” value turned out to be 1.53 FoB, the “CD80 (FoB)” value turned out to be 1.46 FoB and the “PDL1 (FoB)” value is 1.44 FoB.
Turning to B6, the “CD40 (FoB)” value amounted to 1.61 FoB, the “CD80 (FoB)” value worked out at 1.5 FoB, the “GCase (FoB)” value stood at 1.46 FoB and the “PDL1 (FoB)” value was determined as 1.52 FoB.

The record behind these values is US20250270343A1 (Alector, published 2025).
